B1: TmTTA: putative TTA, SEQ ID NO: 36, Thermocladium modestius (protein, listed as Thermocladium modestius)
chain: MREEEAIAALSKLRAIMDRHNNWRRRETINLIPSENVMSPLAEYFYLNDMMGRYAEGTIGKRYYQGVSLVDEAEQMLVDLMSSLFSSRFTDVRPISGTVANMAVYHSVAGLGEKIASLPTAAGGHISHNETGAPKAFGLRVSYLPWSQENFNVDVDAARRLIAEERPKLVLLGASLYLFPHPIKELADAAHEVGAVLMHDSAHVLGLIAGHQFPNPLELGADIMTSSTHKTFPGPQGGVIFTTREDLFKEIQRSVFPVMTSNYHLHRYASTIVTAIEMSTYGDEYAATVRSNAKALAEQLHANGLPVVAEEHGFTATHQVAMDVSKFGGGGPIAKALEDANIIVNKNMLPWDKSPVKPSGIRMGVQEMTRMGMGKGEMAAVAELIAKVVIKGVEPSKVKPEVVELRRGFTKVRYGFDLSTLGLNCPCLPLL
B2: DbTTA: putative TTA, SEQ ID NO: 40, Deltaproteobacteria bacterium (protein, listed as Deltaproteobacteria bacterium)
chain: LTNNRELMDRIGYNLSQGLVSSQHTASLVALFIALHEARLTGKAFAKQVVENARTLASRLAALGVPVLARSDGQFTDNHHFFINLTGVASAPHQMERLLRAHLVVQRGMPFRNVDALRVGVQEVTRRGYGPGEMAQLAEWIASIVIGGADPEVVAPAVQAMAKRFDTIYYTGETVDGKLDLPEIAAPSAKGRWVDYRHLGNDFAMDDTEFSEIRALGAAAGAFPNQTDSTGNVSLRSGARVFVSSSGSYIKHLADGQVVELDAVDPSGELIDYHGAALPSSESLMHFLVYQNVPAGAVVHTHYLLTNQEAADFDVAVIAPQEYASIALARAVAEASKRSRIVYIQKHGLVFWGTDTADCLSQVHNFIHNRPNRRAAEAVYAS
B3: SNTTA: putative TTA, SEQ ID NO: 38, Streptomyces sp. NRRL 30471 (protein)
chain: MTSSDDCAASRTAPVAGRAELLALLGEIEKEQRINEAAVNLVPSENRISPWAGAPLRTDFYNRYFFNDSLDPQGWQFRGGEGIGRLEKELALPALRRLGRADHVNIRPVSGMSAMLVVLLGLGGEPGDGVVCVDAETGGHYATGRQIAMLGRRPLPVRVVAGRVDLDALRTALTSCHVPLVYLDLQNSLWELDVAGVAEVIARTSPRTVLHVDCSHTLGLILGGSHKNPLDLGADTTGGSTHKTFPGPQKGVLFTRDENLSRKIRDAQFFTISSHHFAETLALALAAAEFEHFGAAYSRQVLINARAFAHRLRERGFGVVEGGPQLTDTHQVWVRLPLEESADAFSAQLASLGIRVNVQTELPDIPEPALRLGVSEITLNGGREPAMETLAEIFALVRAGEATKAVDLFQVLPHEMGEPYFFTGLPQEAGLFHG
modifications: Streptomyces sp. NRRL 30471
B4: StTTA: TTA, SEQ ID NO: 35, Streptomyces (multi-species), first 36 N-terminal amino acids removed (protein)
chain: GVWAGDRVAQVLERLASDFVLDNTYREQHLSLTASENYPSKLVRMLGAGLQGGFYEFAPPYPAEAGEWAFPDSGANASLVGKLTGIGRQLFEAATFDWRPNGGSVAEQAVLLGTCGRGDGFVHFAHKDGGHFALESLAGAAGVNTYHLPMVDRTLLIDVDRLATLCAEHPEIKLVILDQSFKLRWQPLAQIRAALPEGVFLAYDASHDGALIAGGVLPQPTLLGADAVHGNTHKTIAGPQKAYIAFRDAEHPKLRAVSDWVCPQMQSNSHAELIAPMYVALSEVALYGHAYARQILANAQALAHGLHEEGVRVSGESFGFTETHQVHVVTGSAADALRLSLGELAQAGIRTTNIEVPGANGLHGLRLGVQAMTRRGLREPQMREVARLVAKVVLRRAEPAAVRAEVADLLQHHPLDQLAYSFDSYVDSPAAARLLGEVFR
modifications: Streptomyces (multi-species)
B5: NoTTA: putative TTA, SEQ ID NO: 39, Nocardia otitidiscaviarum (protein, listed as Nocardia otitidiscaviarum)
chain: MNTFDILEQLARYEVGTSRRLHLIASENPLDSDTRVPYMLAGTLARYAFGEPGQPNWAWPGRETLIDLEADTAAALGALLGADHVNLRPTSGLSAMTVALSALAEHAGDRATVLSLAESDGGHGSTGFMARRFGLDWQRMPADPRTGVVDLDALARQARSARGPLVLYLDAFMARFPFDLTGIRGAVGDSALIHYDGSHPLGLIAGGRFQNPLAEGADSLGGSVHKTWPGPVGKGIIATNDSALASRFDTHAAGWISHHHPADLAALALSTAWMEQHAGDYATAVIANAVQLADELADGGLSICADDRGATASHQVWVDIAPICPAPVAAQRLYDAGIVVNAIAIPGLAEPGLRLGVQELTRWGLDRDGMTVLTWVLTQLLVHNAATAVVAPQMEALRTGLTLPEDRHGLEGFLRACDPQEVSVA

Test system: not listed separately
Test: TTA-ADH coupled assay, substrate scope of TTAs on aromatic aldehydes
Type: biochemical
Settings: TTA-ADH coupled assay
Protocol: (§1) High-throughput screening of purified TTAs was performed with a TTA-ADH coupled assay using purified TTA and commercially available alcohol dehydrogenase from S. cerevisiae purchased from MilliporeSigma. Aldehyde stocks were prepared in 50-100 mM solutions in DMSO or acetonitrile. Reaction mixtures were prepared in a 96-well plate with 100 μL of 100 mM phosphate buffer pH 7.5, 0.5 mM NADH, 0.4 mM PLP, 15 mM MgCl2, and 100 mM L-Thr with the addition of 0.25 mM to 1 mM aldehyde depending on the background absorbance at 340 nm (Table 4), 10 U ScADH, and 0.25 μM purified TTA unless otherwise specified. Reactions were initiated with the addition of enzyme. […] The following controls were included for every assay: reaction mixture without aldehyde, without TTA, and without enzyme (TTA or ADH). Rates were calculated by identifying the linear region at the beginning of the kinetic run and converting the depletion in absorbance to the depletion of mM NADH using an NADH standard curve.
We specifically selected substrates with ring substituents with different electron withdrawing properties (1, 3, 6, 7, 8), substituent size (12), and aldehyde chain length (15) to compare the activity of the putative TTAs to ObiH. We were also encouraged by the activity of PbTTA and KaTTA on vanillin and protocatechualdehyde which are substrates that would form products like commercially available therapeutic, Droxidopa (FIG. 18).
To explore the possibility that DbTTA and TmTTA are TTAs active on other related aldehydes, we sought to examine their activity with L-Thr and aldehyde substrates with different ring substituent position (2), bulkier, hydrophobic chemistry (10), and aldehyde chain length (14) using the TTA-ADH coupled assay.

Molecule | TTA activity with L-Thr and aldehydes 2, 10, 14
B1 | Neither of these proteins appeared to have any TTA activity
B2 | Neither of these proteins appeared to have any TTA activity

Same assay, conditions: purified with SUMO tag

Molecule | TTA activity on aromatic aldehydes
B3 | no TTA activity

Test system: not listed separately
Test: In vitro assay over 20 h with HPLC analysis (amino acid substrate specificity, diastereomeric excess)
Type: biochemical
Settings: not given
Protocol: Metabolites of interest were quantified via high-performance liquid chromatography (HPLC) using an Agilent 1260 Infinity model equipped with a Zorbax Eclipse Plus-C18 column. To quantify aldehyde and β-OH-nsAAs, an initial mobile phase of solvent A/B=95/5 was used (solvent A, water+0.1% TFA; solvent B, acetonitrile+0.1% TFA) and maintained for 5 min. A gradient elution was performed (A/B) as follows: gradient from 95/5 to 50/50 for 5-12 min, gradient from 50/50 to 0/100 for 12-13 min, and gradient from 0/100 to 95/5 for 13-14 min. A flow rate of 1 mL min-1 was maintained, and absorption was monitored at 210, 250 and 280 nm.
We performed an in vitro assay over 20 h using 3 as the aldehyde substrate and either L-Thr, Glycine (Gly), or L-Serine (L-Ser) as the candidate amino acid. Since the TTA-ADH coupled assay is specific to L-Thr, we analyzed TTA activity via HPLC with a chemically synthesized β-OH-nsAA standard for the assumed product from 3.

Molecule | β-OH-nsAA product formation from 3 and L-Thr
B4 | active
B1 | no product
B2 | no product
B5 | no product

Test system: ObiH
Test: TTA-ADH coupled assay, ObiH screened on aromatic aldehyde substrates
Type: biochemical, Pseudomonas fluorescens
Settings: 0.25-1 mM aldehyde, 100 mM L-Thr, 0.25 μM purified TTA, 30° C.
Protocol: as §1
To expand our understanding of the TTA enzyme class, we wanted a high-throughput method for rapid screening of multiple enzymes and candidate aldehyde substrates. We began by analyzing a previously reported coupled enzyme assay (FIG. 2a) based on the addition of alcohol dehydrogenase (ADH), which consumes NADH to reduce the co-product acetaldehyde in a manner that can be monitored at 340 nm. Unfortunately, this coupled assay for TTA activity suffers from false positives and confounding variables which we sought to address. […] Second, the characterized TTAs are known to catalyze the decomposition of L-Thr in the absence of an aldehyde substrate, which is an undesired reaction that also generates an acetaldehyde co-product. Another limitation of the TTA-ADH coupled assay is that many of the aromatic aldehyde candidate substrates absorb at the same measurement wavelength (Table 4). Thus, we minimized the impact of the false positives, spectral overlap, and other confounding variables by tuning enzyme and aldehyde concentrations and monitoring the undesired reactions with two controls: (1) lacking aldehyde substrate (“L-Thr”) and (2) lacking TTA (“no TTA”) where only the ADH and substrate are present. Then, we validated the TTA-ADH coupled assay by performing HPLC analysis, using the chemically synthesized β-OH-nsAA standard for the assumed product from 3, over a time course where we observed that the addition of the ScADH improves reaction rates three-fold. As previously reported by others, we were also able to improve β-OH-nsAAs yields when using the ScADH coupled to a co-factor regeneration system. As the last step of verification, we screened the TTA-ADH coupled assay with ObiH before and after photo-treatment, we observed no differences in reaction rate and continued to assay the TTAs without photo-treatment.
Upon assay validation, we hypothesized that we could rapidly probe the activity of ObiH on diverse aldehydes to expand the potential chemical handles of β-OH-nsAAs. We successfully screened ObiH against 16 unique substrates in a single experiment (FIGS. 2b,c). […] Our screen included nine substrates not previously tested with ObiH to our knowledge; activity on seven of these substrates was confirmed with new peak formation via HPLC or LC-MS (FIGS. 3-14). The new substrates include aldehydes that contain amines, conjugatable handles, or larger hydrophobic groups to improve the chemical diversification of β-OH-nsAA products. Our result supported the known general trend that aldehydes containing electron-withdrawing ring substituents are the preferred substrates of ObiH. As expected, the amine-aldehydes were very poor substrates for ObiH, which we hypothesize is because of the strong electron-donating potential of amines. Additionally, one amine-containing substrate (5) absorbed at 340 nm, so it was only tested at low concentrations of 0.25 mM aldehyde (Table 4). […]

Molecule | activity of ObiH on aldehyde substrate (initial rate, TTA-ADH coupled assay)
O=Cc1ccc(-c2ccccc2)cc1 [Aldehyde 10, 4-biphenylcarboxaldehyde] | some activity
O=CCc1ccc([N+](=O)[O-])cc1 [Aldehyde 15, 4-nitro-phenylacetaldehyde] | validated the activity
O=Cc1ccccc1[N+](=O)[O-] [Aldehyde 3, 2-nitro-benzaldehyde] | validated the activity
O=Cc1ccc(C=O)cc1 [Aldehyde 7, terephthalaldehyde] | activity
O=Cc1ccc2ccccc2c1 [Aldehyde 12, 2-napthalaldehyde] | some activity
O=Cc1ccc(B(O)O)cc1 [Aldehyde 13, 4-boronobenzaldehyde] | activity
COc1ccc(C=O)cc1 [Aldehyde 9, 4-methoxybenzaldehyde] | some activity

From patent publication US20250215467A1, “L-THREONINE TRANSALDOLASES AND USES THEREOF” (University of Delaware, priority 2022, published 2025)
